Biological target: cynomolgus PD-1 expressed on cells (cynomolgus monkey) (UniProt B0LAJ3)
Test: flow cytometry, CHO-S Cyno-PD-1

cynomolgus PD-1 expressed on cells (cynomolgus monkey), sequence (B0LAJ3 entry or part of it limits assumed): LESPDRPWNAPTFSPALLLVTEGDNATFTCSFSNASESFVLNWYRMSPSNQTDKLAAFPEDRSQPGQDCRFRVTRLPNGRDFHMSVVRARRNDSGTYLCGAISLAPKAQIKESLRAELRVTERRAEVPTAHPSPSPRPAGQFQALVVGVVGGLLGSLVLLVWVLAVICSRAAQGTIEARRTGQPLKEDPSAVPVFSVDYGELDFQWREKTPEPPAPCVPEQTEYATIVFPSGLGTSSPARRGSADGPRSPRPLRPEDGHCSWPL

Binder | Max MFI [MFI]
z2-XVT458 (antibody, IgG1, V domains shown) VH: QVQLVQSGAEVKKPGASVKVSCKASGYTFTNFYIHWVRQAPGQGLEWMGSIYPNYGDTAYNQKFKDRVTMTVDTSTSTAYMELRSLRSDDTAVYYCARGYSYAMDYWGQGTTVTVSS VL: DIQMTQSPSSVSASVGDRVTITCSASQGISGDLNWYQQKPGKAPKLLIYHTSSLHSGVPSRFSGSGSGTDFTLTISSLQPEDFATYYCQYYSKDLLTFGGGTKLEIK | 109
XVT458-z2-m4 (antibody, V domains shown) VH: QVQLVQSGAEVKKPGASVKVSCKASGYTFTNFYIHWVRQAPGQGLEWMGRIYPNYGITAYNQKFKDRVTMTVDTSTSTAYMELRSLRSDDTAVYYCARGYSYAMDYWGQGTTVTVSS VL: DIQMTQSPSSVSASVGDRVTITCSASQGISGDLNWYQQKPGKAPKLLIYHTSSRHSGVPSRFSGSGSGTDFTLTISSLQPEDFATYYCQGYSKDLLTFGGGTKLEIK | 258
XVT458-z2-m3 (antibody, V domains shown) VH: QVQLVQSGAEVKKPGASVKVSCKASGYTFTNFYIHWVRQAPGQGLEWMGRIYPNYGITAYNQKFKDRVTMTVDTSTSTAYMELRSLRSDDTAVYYCARGYSYAMDYWGQGTTVTVSS VL: DIQMTQSPSSVSASVGDRVTITCSASQGISGDLNWYQQKPGKAPKLLIYHTSQRHSDVPSRFSGSGSGTDFTLTISSLQPEDFATYYCQGYSKDLLTFGGGTKLEIK | 124
XVT458-z2-m6 (antibody, V domains shown) VH: QVQLVQSGAEVKKPGASVKVSCKASGYTFTNFYIHWVRQAPGQGLEWMGSIYPNYGITAYNQKFKDRVTMTVDTSTSTAYMELRSLRSDDTAVYYCARGYSYAMDYWGQGTTVTVSS VL: DIQMTQSPSSVSASVGDRVTITCSASQGISGDLNWYQQKPGKAPKLLIYHTSQLHSDVPSRFSGSGSGTDFTLTISSLQPEDFATYYCQGYSKDLLTFGGGTKLEIK | 59
XVT458-z2-m1 (antibody, V domains shown) VH: QVQLVQSGAEVKKPGASVKVSCKASGYTFTNFYIHWVRQAPGQGLEWMGSIYPNYGFTAYNQKFKDRVTMTVDTSTSTAYMELRSLRSDDTAVYYCARGYSYAMDYWGQGTTVTVSS VL: DIQMTQSPSSVSASVGDRVTITCSASQGIWGDLNWYQQKPGKAPKLLIYHTSQLHSDVPSRFSGSGSGTDFTLTISSLQPEDFATYYCQGYSKDLLTFGGGTKLEIK | 70
XVT458-z2-m2 (antibody, V domains shown) VH: QVQLVQSGAEVKKPGASVKVSCKASGYTFTNFYIHWVRQAPGQGLEWMGRIYPNYGFTAYNQKFKDRVTMTVDTSTSTAYMELRSLRSDDTAVYYCARGYSYAMDYWGQGTTVTVSS VL: DIQMTQSPSSVSASVGDRVTITCSASQGIYGDLNWYQQKPGKAPKLLIYHTSSLHSGVPSRFSGSGSGTDFTLTISSLQPEDFATYYCQAYSKDLLTFGGGTKLEIK | 367
XVT458-z2-m5 (antibody, V domains shown) VH: QVQLVQSGAEVKKPGASVKVSCKASGYTFTNFYIHWVRQAPGQGLEWMGRIYPNYGITAYNQKFKDRVTMTVDTSTSTAYMELRSLRSDDTAVYYCARGYSYAMDYWGQGTTVTVSS VL: DIQMTQSPSSVSASVGDRVTITCSASQGIYGDLNWYQQKPGKAPKLLIYHTSSRHSGVPSRFSGSGSGTDFTLTISSLQPEDFATYYCQAYSKDLLTFGGGTKLEIK | 335
